According to CN101896199A:

Assays:
[1] = biological target: HBV表面抗原 (hepatitis B virus surface antigen) (乙型肝炎病毒(HBV)); test: ELISA titre (method of Shin YW et al. 2007); formulation after 3 months
[2] = biological target: HBV表面抗原 (hepatitis B virus surface antigen) (乙型肝炎病毒(HBV)); test: ELISA titre (method of Shin YW et al. 2007); formulation at 0 weeks, 25℃, 60% R.H.
[3] = biological target: HBV表面抗原 (hepatitis B virus surface antigen) (乙型肝炎病毒(HBV)); test: ELISA titre (method of Shin YW et al. 2007); formulation after 3 months, 25℃, 60% R.H.
[4] = biological target: HBV表面抗原 (hepatitis B virus surface antigen) (乙型肝炎病毒(HBV)); test: ELISA titre (method of Shin YW et al. 2007); formulation after 6 months, 25℃, 60% R.H.

Measured: 滴度(IU/mg)

Hepabig基因 (从细胞系HBAb-49, 登录号KCLRF-BP-00054, 产生的针对HBV表面抗原的人抗体) (antibody)
> 2000 IU/mg: all assays above
